According to patent US20170349646A1 (PANASONIC INTELLECTUAL PROPERTY MANAGEMENT, published 2017):

What was measured:
[1] = biological target: recombinant nucleoprotein (NP) protein derived from influenza virus H1N1 to which a Flag tag was fus (influenza virus H1N1)
[2] = biological target: recombinant nucleoprotein derived from influenza virus subtype A H1N1 (Sino Biological, 11675-VO8H) (influenza virus subtype A H1N1)
Chain of recombinant nucleoprotein derived from influenza virus subtype A H1N1 (Sino Biological, 11675-VO8H) (influenza virus subtype A H1N1) (P03466 whole entry): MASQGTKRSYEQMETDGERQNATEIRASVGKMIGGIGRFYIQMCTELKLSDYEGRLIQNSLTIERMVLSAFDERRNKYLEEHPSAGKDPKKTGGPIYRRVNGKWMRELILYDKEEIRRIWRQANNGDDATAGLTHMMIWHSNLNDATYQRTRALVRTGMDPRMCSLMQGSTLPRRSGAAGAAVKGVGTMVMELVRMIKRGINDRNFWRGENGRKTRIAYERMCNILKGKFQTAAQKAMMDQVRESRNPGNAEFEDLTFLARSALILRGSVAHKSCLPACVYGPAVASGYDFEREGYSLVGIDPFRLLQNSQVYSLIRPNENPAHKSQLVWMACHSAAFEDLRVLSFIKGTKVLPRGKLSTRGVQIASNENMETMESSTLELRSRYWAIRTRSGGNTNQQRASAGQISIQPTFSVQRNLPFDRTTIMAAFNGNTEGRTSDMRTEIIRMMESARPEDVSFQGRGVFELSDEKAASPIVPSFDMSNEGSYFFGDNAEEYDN

Chain of recombinant nucleoprotein (NP) protein derived from influenza virus H1N1 to which a Flag tag was fus (influenza virus H1N1) (P03466 whole entry): as above

B1: VHH antibody consisting of the amino acid sequence represented by SEQ ID NO: 08 (VHH)
VHH: EVQLVESGGGLVQAGDSLRLSCAASGRTFINLDMGWFRQPPGKEREYVAAITRNGAITSYADSAKGRFTISRDNAKNTVSLEMNSLKPEDTGVYYCAAYSISNYGSGWYKPDYWGQGAQVTVSS
Question: How did the Kd [1] turn out when B1 was run?
Answer: 0.224 nM

Question: And the “EC50 (read off the curve)” value [2]?
Answer: ~8 ng/mL
